Experiment [1] addresses T1, murine ITGA11 expressed in CHO cells (murine, UniProt P61622 23-1188).
T1 construct: whole, on cells; Only the alpha chain is named for these cells; also called mouse ITGA11; CHO cells expressing murine ITGA11
T1 sequence (looked up): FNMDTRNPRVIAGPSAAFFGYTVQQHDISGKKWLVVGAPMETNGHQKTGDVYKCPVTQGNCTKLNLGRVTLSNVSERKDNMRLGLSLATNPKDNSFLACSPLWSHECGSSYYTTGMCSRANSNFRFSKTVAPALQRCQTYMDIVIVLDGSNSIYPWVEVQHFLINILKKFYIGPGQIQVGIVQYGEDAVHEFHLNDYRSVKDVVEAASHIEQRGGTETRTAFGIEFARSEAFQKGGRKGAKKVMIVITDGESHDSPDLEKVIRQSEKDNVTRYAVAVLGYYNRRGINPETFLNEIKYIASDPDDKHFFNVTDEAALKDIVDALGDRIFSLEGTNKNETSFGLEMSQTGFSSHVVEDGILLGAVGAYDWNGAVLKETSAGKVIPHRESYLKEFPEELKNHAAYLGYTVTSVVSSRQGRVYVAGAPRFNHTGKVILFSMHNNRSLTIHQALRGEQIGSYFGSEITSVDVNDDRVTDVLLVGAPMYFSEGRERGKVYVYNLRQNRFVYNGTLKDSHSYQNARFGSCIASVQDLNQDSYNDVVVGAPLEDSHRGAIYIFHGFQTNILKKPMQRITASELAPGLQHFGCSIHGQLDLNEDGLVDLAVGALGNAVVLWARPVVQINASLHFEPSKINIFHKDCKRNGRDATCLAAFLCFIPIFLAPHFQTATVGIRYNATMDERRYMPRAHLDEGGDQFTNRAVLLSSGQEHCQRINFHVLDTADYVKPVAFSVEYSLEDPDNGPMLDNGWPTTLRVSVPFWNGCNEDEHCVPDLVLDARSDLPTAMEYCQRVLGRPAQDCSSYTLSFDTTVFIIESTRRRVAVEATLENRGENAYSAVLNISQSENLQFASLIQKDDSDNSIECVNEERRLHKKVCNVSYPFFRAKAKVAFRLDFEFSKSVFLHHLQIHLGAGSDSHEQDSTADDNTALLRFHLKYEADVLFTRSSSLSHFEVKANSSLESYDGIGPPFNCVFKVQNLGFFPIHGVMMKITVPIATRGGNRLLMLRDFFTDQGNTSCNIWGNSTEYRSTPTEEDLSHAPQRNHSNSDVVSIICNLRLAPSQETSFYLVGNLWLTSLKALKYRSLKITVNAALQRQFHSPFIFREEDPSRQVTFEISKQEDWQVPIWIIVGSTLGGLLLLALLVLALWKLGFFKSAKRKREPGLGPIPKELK
The experiment in a line: flow cytometry, 34 nM antibody on CHO cells expressing murine ITGA11. On the procedure:
(§1) Antibody binding to C2C12 cells expressing human ITGA11 or CHO cells expressing murine ITGA11 was performed by incubating the cells with the antibodies at a concentration of 34 nM for 1 hour at 4° C. in binding medium (PBS, 10% normal goat serum, 2% rabbit serum, and 1% BSA). Cells were washed in binding medium and binding was detected using goat-anti-human Fc BV421 (Jackson ImmunoLabs). After washing the cells were resuspended in binding medium and binding was assessed by flow cytometry. 226 antibodies were screened and the binding characteristics of 10 antibodies are presented below. The results are provided in Table 2 and are expressed as mean fluorescence intensity (MFI).
(A flow cytometer gives signals particle by particle.)

Experiment [2] addresses T2, human ITGA11 expressed in mouse C2C12 cells (human, UniProt Q9UKX5 23-1188).
T2 construct: whole, on cells; also called integrin α11; C2C12 cells expressing human ITGA11
T2 sequence (looked up): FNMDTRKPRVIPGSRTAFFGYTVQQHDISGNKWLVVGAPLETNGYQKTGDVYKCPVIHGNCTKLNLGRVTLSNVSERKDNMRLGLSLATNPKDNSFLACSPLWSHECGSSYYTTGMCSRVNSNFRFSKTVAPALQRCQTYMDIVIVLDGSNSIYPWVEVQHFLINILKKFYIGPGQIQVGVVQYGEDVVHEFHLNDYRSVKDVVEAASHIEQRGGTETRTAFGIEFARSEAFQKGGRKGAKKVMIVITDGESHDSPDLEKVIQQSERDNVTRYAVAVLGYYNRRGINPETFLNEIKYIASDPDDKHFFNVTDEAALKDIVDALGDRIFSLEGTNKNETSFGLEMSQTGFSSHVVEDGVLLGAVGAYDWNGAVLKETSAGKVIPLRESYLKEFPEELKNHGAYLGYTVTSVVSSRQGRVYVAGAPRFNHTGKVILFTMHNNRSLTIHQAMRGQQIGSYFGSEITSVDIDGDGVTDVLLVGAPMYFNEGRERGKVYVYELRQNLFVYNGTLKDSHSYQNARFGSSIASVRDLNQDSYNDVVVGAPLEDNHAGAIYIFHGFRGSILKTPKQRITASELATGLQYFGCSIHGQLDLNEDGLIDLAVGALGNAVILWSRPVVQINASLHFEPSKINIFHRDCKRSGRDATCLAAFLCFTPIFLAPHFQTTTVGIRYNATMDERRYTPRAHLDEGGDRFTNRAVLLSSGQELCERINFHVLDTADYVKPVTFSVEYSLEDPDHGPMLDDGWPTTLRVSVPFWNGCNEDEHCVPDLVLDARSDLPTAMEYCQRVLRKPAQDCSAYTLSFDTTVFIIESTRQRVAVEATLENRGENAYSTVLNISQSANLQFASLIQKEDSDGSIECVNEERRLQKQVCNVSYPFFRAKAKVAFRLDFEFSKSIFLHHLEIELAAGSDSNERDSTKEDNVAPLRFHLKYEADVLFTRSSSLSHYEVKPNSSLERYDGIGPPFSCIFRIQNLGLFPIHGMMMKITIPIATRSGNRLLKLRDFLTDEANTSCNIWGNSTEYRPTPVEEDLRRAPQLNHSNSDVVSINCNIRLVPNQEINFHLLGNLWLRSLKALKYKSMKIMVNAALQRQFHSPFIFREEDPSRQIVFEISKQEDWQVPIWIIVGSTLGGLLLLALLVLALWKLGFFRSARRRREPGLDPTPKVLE
The experiment in a line: flow cytometry, 34 nM antibody on C2C12 cells expressing human ITGA11. As for the experimental part: as §1

B1: mAb FIB-918-9 (antibody, V domains shown)
VH: EVQLVESGGGLVQPGGSLRLSCLASGFTFSDYWMAWVRQAPGKGLEWVSAISGSGGSTYYADSVKGRFTISRDNSKNTLYLQMNSLRAEDTAVYYCAKDLLWAARDAFDIWGQGTLVTVSS
VL: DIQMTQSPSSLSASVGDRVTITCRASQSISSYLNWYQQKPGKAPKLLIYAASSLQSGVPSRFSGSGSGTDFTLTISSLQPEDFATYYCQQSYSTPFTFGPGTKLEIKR
Turning to B1, the MFI in experiment [1] worked out at 2030 MFI; in experiment [2] it was 1450 MFI.

B2: mAb FIB-918-2 (antibody, human IgG4, V domains shown)
VH: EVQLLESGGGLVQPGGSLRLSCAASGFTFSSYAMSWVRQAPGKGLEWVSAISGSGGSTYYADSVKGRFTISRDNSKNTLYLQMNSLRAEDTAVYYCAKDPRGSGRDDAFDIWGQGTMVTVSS
VL: NIQMTQSPSSLSASVGDRVTITCRASQTIGSYLNWYQQKPGTAPKLLIYGASTSHTWVPSRFTGGGSGTEFTLTISSLQSEDFATYYCQQSYSTPFTFGGGTKLEIKR
For the molecule B2, the MFI was found to be 12600 MFI in experiment [1] and 30400 MFI in experiment [2].

B3: mAb FIB-918-7 (antibody, human IgG4, V domains shown)
VH: EVQLVESGGGLVQPGGSLRLSCAASGFMFDTHAMSWVRQAPGKGLEWVSSISGSGGSIYYADSVKGRFTISRDNSKNTLYLQMNSLRAEDTAVYYCARSGETAGTDYFDYWGQGTLVTVSS
VL: EIVMTQSPATLSLSPGERATLSCRASQSVSSSYLSWYQQKPGQAPRLLIYGASTRATGIPARFSGSGSGTDFTLTISSLQPEDFAVYYCQQDYNSPYTFGQGTKVDIKR
As for B3, the MFI in experiment [1] was 21300 MFI; in experiment [2], 7870 MFI.

B4: mAb FIB-918-6 (antibody, V domains shown)
VH: EVQLLESGGDLVKAGGSLRLSCAASGFTFSNAWMSWVRQAPGKGLEWVSGISGSGGSTYYADSVKGRFTISRDNSKNTLYLQMNSLRAEDTAVYYCARDRGYSYSETSNDAFDIWGRGTLVTVSS
VL: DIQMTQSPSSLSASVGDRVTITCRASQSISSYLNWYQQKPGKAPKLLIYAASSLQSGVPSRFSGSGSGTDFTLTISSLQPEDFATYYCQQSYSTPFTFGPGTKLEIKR
On to B4, for which the figures for the MFI in experiment [1] and in experiment [2] were 9410 MFI and 7880 MFI, respectively.

B5: mAb FIB-918-3 (antibody, human IgG4, V domains shown)
VH: EVQLVESGGGLVQPGGSLRLSCAASGFTFSSYSMNWVRQAPGKGLEWVSYISSSSSTIYYADSVKGRFTISRDNAKNSLYLQMNSLRAEDTAVYYCARGPDLSDYFDYWGRGTLVTVSS
VL: not shown
Turning to B5, the MFI in experiment [1] worked out at 1520 MFI; in experiment [2], 5220 MFI.

B6: mAb FIB-918-8 (antibody, V domains shown)
VH: EVQLVESGGGVVRPGGPLRLSCAASGFTFSNAWMSWVRQAPGKGLEWVSAISGSGGSTYYADSVKGRFTISRDNSKNTLYLQMNSLRAEDTAIYYCAKQTVTSADDYFDYWGQGTLVTVSS
VL: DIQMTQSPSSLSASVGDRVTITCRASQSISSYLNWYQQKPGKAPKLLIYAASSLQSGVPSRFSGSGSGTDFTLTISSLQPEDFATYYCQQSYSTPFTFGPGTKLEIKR
In the case of B6, the MFI in experiment [1] came to 32900 MFI; in experiment [2], 41500 MFI.

B7: mAb FIB-918-10 (antibody, human IgG4, V domains shown)
VH: not shown
VL: AIQLTQSPSTLSASVGDRVTITCRASQGINDFLAWYQQKPGKAPKLLIYAASSLQSGVPSRFSGSGSGTDFTLTISSLQPEDFATYYCQQSYSTPLTFGGGTKVEIKR
With B7, the MFI in experiment [1] is 8570 MFI; in experiment [2], 10600 MFI.

B8: mAb FIB-918-4 (antibody, human IgG4, V domains shown)
VH: QVQLVQSGAEVKKPGATVKISCKVSGYTFTDYYMHWVRQAPGKGLEWMGGFDPEDGETIYAQKFQGRVTMTEDTSTDTAYMELSSLRSEDTAVYYCATLDYRGVVYFDYWGQGTLVTVSS
VL: NFMLTQPHSVSDSPGKTVTISCTGSSGSIASNYVQWYQQRPGSAPTTVIYEDKRRPSGVPDRFIGSIDSSSNSASLTISGLRTEDEADYYCQSYDSSNHWVFGGGTQLTVLG
For the molecule B8, the MFI was determined as 4570 MFI in experiment [1] and 15700 MFI in experiment [2].
